From patent US20090148436A1 (Pfizer, published 2009)

What was measured:
[1] = target: T1, mature human GDF8 (growth and differentiation factor-8, myostatin) (human, UniProt O14793 267-375); experiment: soluble ActRIIB as competitor: inhibition of the binding of biotinylated GDF8 (20 ng/ml) to plate-coated ActRIIB-Fc; axis OD 450 nm
T1 construct: Recombinant mature GDF8 dimer purified from CHO cell conditioned media; It was biotinylated (Sulfo-NHS-Biotin) in the direct ELISA, the BIAcore work and the ActRIIB plate assay, and unlabeled in the sandwich ELISAs; In the peptide array Cys was replaced by Ser; also called mature GDF-8; GDF-8 dimer

[2] = target: T1, mature human GDF8 (growth and …); experiment: BIAcore 2000, RK22 (lot PK1901, activity 82.54 %) over biotinylated GDF-8 on Sensor Chip SA; 45 RU (4.30.03), Bivalent model (global analysis), ka1/kd1, Rmax 84.00, Chi2 1.29
[3] = target: T1, mature human GDF8 (growth and …); experiment: BIAcore 2000, RK22 (lot PK1901, activity 82.54 %) over biotinylated GDF-8 on Sensor Chip SA; 45 RU (4.30.03), Langmuir model (global analysis), Rmax 84.00, Chi2 2.12
[4] = target: T1, mature human GDF8 (growth and …); experiment: SPR (BIAcore 2000), biotinylated GDF-8 on streptavidin chip, antibody 2.3-300 nM in solution
[5] = target: T1, mature human GDF8 (growth and …); experiment: BIAcore 2000, RK22 over biotinylated GDF-8 on Sensor Chip SA; Bivalent model (global analysis), ka1/kd1, row Average of three independent experiments
[6] = target: T1, mature human GDF8 (growth and …); experiment: BIAcore 2000, RK22 (lot PK1901, activity 82.54 %) over biotinylated GDF-8 on Sensor Chip SA; 71 RU (2.6.03), Bivalent model (global analysis), ka1/kd1, Rmax 53.00, Chi2 0.84
[7] = target: T1, mature human GDF8 (growth and …); experiment: BIAcore 2000, RK22 (lot PK1901, activity 82.54 %) over biotinylated GDF-8 on Sensor Chip SA; 42.4 RU (6.14.03), Langmuir model (global analysis), Rmax 39.4, Chi2 3.67
[8] = target: T1, mature human GDF8 (growth and …); experiment: ELISA: antibody titrated on biotinylated GDF8 held on a streptavidin plate (title SA/BIO GDF8 BINDING ELISA), OD 450 nm
mature BMP11 = target: T2, mature BMP11 (human, UniProt O95390 299-407); experiment: ELISA: antibody titrated on biotinylated BMP11 held on a streptavidin plate (title SA/BIO BMP11 ELISA), OD 450 nm
T2 construct: mature; it is not certain that 'human' covers BMP11; It was biotinylated in the ELISA; also called biotinylated BMP11

[9] = target: T1, mature human GDF8 (growth and …); experiment: cell-based or functional assay
[10] = target: T1, mature human GDF8 (growth and …); experiment: BIAcore 2000, RK22 (lot PK1901, activity 82.54 %) over biotinylated GDF-8 on Sensor Chip SA; 71 RU (2.6.03), Langmuir model (global analysis), Rmax 44.00, Chi2 7.47
[11] = target: T1, mature human GDF8 (growth and …); experiment: sandwich ELISA: RK22 coated, GDF-8 titrated, biotinylated RK35 as detector, in THST; the concentration is that of GDF-8
[12] = target: T1, mature human GDF8 (growth and …); experiment: BIAcore 2000, RK22 over biotinylated GDF-8 on Sensor Chip SA; Langmuir model (global analysis), row Average of three independent experiments
[13] = target: T1, mature human GDF8 (growth and …); experiment: BIAcore 2000, RK22 (lot PK1901, activity 82.54 %) over biotinylated GDF-8 on Sensor Chip SA; 42.4 RU (6.14.03), Bivalent model (global analysis), ka1/kd1, Rmax 49.2, Chi2 0.299
[14] = target: T1, mature human GDF8 (growth and …); experiment: inhibition of the binding of biotinylated GDF8 (20 ng/ml), preincubated with the titrated protein, to plate-coated ActRIIB-Fc; axis OD 450 nm

T2 sequence (O95390 299-407): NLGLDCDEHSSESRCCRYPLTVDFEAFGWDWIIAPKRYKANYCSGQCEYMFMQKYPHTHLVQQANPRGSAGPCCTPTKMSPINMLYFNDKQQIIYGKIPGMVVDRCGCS

B1: Recombinant ActRIIB-Fc chimera (R&D Systems, Cat. No. 339-RB/CF) (Fc fusion)
chain: SGRGEAETRECIYYNANWELERTNQSGLERCEGEQDKRLHCYASWRNSSGTIELVKKGCWLDDFNCYDRQECVATEENPQVYFCCCEGNFCNERFTHLPEAGGPEVTYEPPPTAPT
notes: Bought construct; also called ActRIIB fusion protein; ActIIRB; Fc part of the bought chimera not given
[1]
  IC50 (read off the curve): ~0.3 nM

B2: RK22 murine monoclonal anti-GDF8 antibody (antibody, V domains shown)
VH: QVQLQQSGAELARPGASVKLSCKASGYTFTSYWMQWVKQRPGQGLEWIGAIYPGDGDTRYTQKFKGKATLTADKSSSTAYMQLSSLASEDSAVYYCARMGGYDRYYFDYWGQGTTLTVSS
VL: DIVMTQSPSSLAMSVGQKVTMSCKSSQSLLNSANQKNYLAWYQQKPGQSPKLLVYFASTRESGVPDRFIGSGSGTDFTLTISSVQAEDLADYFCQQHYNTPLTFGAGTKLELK
notes: Mouse monoclonal from a hybridoma (GDF8 knockout mice); It was biotinylated when used as the ELISA detector; also called RK22 antibody; biotinylated RK22
[2]
  Ka: 3.67e+07 M⁻¹
  Kd: 27.3 nM
  koff: 0.00063 s⁻¹
  kon: 23100 M⁻¹ s⁻¹
[3]
  Ka: 7.28e+07 M⁻¹
  Kd: 13.7 nM
  koff: 0.000633 s⁻¹
  kon: 46100 M⁻¹ s⁻¹
[4]
  Kd: 7 nM
[5]
  Ka: 8.44e+07 M⁻¹
  Kd: 15.2 nM
  koff: 0.000708 s⁻¹
  kon: 61600 M⁻¹ s⁻¹
[6]
  Ka: 1.07e+08 M⁻¹
  Kd: 9.33 nM
  koff: 0.00078 s⁻¹
  kon: 83600 M⁻¹ s⁻¹
[7]
  Ka: 3.24e+08 M⁻¹
  Kd: 3.09 nM
  koff: 0.000482 s⁻¹
  kon: 156000 M⁻¹ s⁻¹
[8]
  EC50: 0.193 mg/L
Mature BMP11
  EC50: 61.2 mg/L
[9]
  IC50, pGL3(CAGA)12 luciferase reporter in A204 cells treated with 10 ng/ml GDF8: 0.4 nM
[10]
  Ka: 2.58e+08 M⁻¹
  Kd: 3.88 nM
  koff: 0.000572 s⁻¹
  kon: 147000 M⁻¹ s⁻¹
[11]
  EC50 (read off the curve): ~0.0003 mg/L
[12]
  Ka: 2.18e+08 M⁻¹
  Kd: 6.89 nM
  koff: 0.000562 s⁻¹
  kon: 116000 M⁻¹ s⁻¹
[13]
  Ka: 1.09e+08 M⁻¹
  Kd: 9.14 nM
  koff: 0.000714 s⁻¹
  kon: 78100 M⁻¹ s⁻¹

B3: MYO-029 human IgG1 anti-GDF-8 antibody (antibody, V domains shown)
VH: QVQLVQSGAEVKKPGASVKVSCKASGYTFTSYYMHWVRQAPGQGLEWMGIINPSGGSTSYAQKFQGRVTMTRDTSTSTVYMELSSLRSEDTAVYYCARDENWGFDPWGQGTLVTVSS
VL: SYELTQPPSVSVSPGQTATITCSGHALGDKFVSWYQQGSGQSPVLVIYDDTQRPSGIPGRFSGSNSGNTATLTISGTQAMDEADYFCQAWDSSFVFGGGTKVTVL
[14]
  IC50 (read off the curve): ~0.3 nM
